# Measurements as given in patent publication US20140154252A1 (EMERGENT PRODUCT DEVELOPMENT SEATTLE, published 2014).
# T1: CD20 (human, UniProt P11836 1-297)
# T1 construct: whole, on cells; 2H7 is called murine anti-human CD20; also called CD20 presented on WIL-2S cells; CD20 on Ramos, BJAB, SU-DHL-6 and DoHH2 B cells
# T1 sequence (looked up): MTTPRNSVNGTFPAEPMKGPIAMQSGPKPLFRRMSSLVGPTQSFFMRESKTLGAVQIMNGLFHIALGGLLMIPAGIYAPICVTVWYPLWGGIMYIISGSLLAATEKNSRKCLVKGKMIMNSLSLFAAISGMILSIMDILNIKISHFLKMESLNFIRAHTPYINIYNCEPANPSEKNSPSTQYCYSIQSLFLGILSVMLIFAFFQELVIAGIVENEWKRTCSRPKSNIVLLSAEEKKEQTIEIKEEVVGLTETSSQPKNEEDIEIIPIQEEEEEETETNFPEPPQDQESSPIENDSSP
# Assays:
# CD20 [1] = biological target: T1, CD20; test: flow cytometry on WIL2S cells (CD20), FITC goat anti-human IgG; no unit printed on the axis (legend: ug/ml)
# CD20 [2] = biological target: T1, CD20; test: flow cytometry, dilutions of crude COS supernatant on WIL-2S cells (CD20), FITC goat anti-human IgG
# Description: Seeded plates containing the proteins were incubated on ice for one hour. Subsequently, the wells were washed once with 200 μl 1% FBS in PBS. Goat anti-human antibody labeled with FITC (Fc Sp) at 1:100 was then added to each well, and the plates were again incubated on ice for one hour. The plates were then washed once with 200 μl 1% FBS in PBS and the cells were re-suspended in 200 μl 1% FBS and analyzed by FACS.
# CD20 [3] = biological target: T1, CD20; test: flow cytometry on WIL2-S cells (CD20), purified protein at 5 ug/mL, FITC goat anti-human IgG 1:100
# Description: Each of the proteins was tested for binding at 5 μg/ml, and binding detected with FITC goat anti-human IgG at 1:100. Control is FITC goat anti-human IgG alone. See the description for FIG. 2 above for more complete descriptions of the modules of the molecules tested.
# CD28mIgG [4] = biological target: T2, CD28mIgG (UniProt P10747 19-152); test: Western blot, non-reducing, probed with CD28Ig and goat anti-mouse HRP conjugate
# T2 construct: Bought reagent; the construct is not described; also called CD28Ig (Ancell); CD28 fused to mouse antibody; not shown: mouse Ig part of the bought fusion; not described
# Description: (§1) Electrophoresis was performed under non-reducing conditions, and without boiling samples prior to loading. After electrophoresis, proteins were transferred to PVDF membranes using a semi-dry electroblotter apparatus (Ellard, Seattle, Wash.) for 1 hour at 100 mAmp. Membranes were blocked in BLOTTO (5% nonfat milk in PBS) overnight with agitation. FIG. 9A: Membranes were incubated with the AbyD02429.2, a Fab directed to the 2H7 antibody, at 5 μg/ml in BLOTTO for one hour, then washed 3 times for 5 minutes each in PBS-0.5% Tween 20. Membranes were then incubated in 6×His-HRP for one hour at a concentration of 0.5 μg/ml. Blots were washed three times for 15 minutes each in PBST. Wet membranes were incubated with ECL solution for 1 minute, followed by exposure to X-omat film for 20 seconds.
# (§2) FIG. 9B: Membranes were incubated with CD28Ig (Ancell, Bayport, Minn.) at 10 μg/ml in BLOTTO, then washed three times for 15 minutes each in PBS-0.5% Tween 20. Membranes were then incubated in goat anti-mouse HRP conjugate (CalTag, Burlingame, Calif.) at 1:3000 in BLOTTO. Membranes were washed three times, for 15 minutes each, then incubated in ECL solution for 1 minute, followed by exposure to X-omat film for 20 seconds.
# CD20 [5] = biological target: T1, CD20; test: sandwich flow cytometry: 2e12HL on WIL-2S cells (CD20), then CD28mIgG, then FITC anti-mouse
# CD28mIgG [6] = biological target: T2, CD28mIgG; test: Western blot of non-reduced protein probed with CD28 murine IgG, then goat anti-mouse HRP
# Description: as §1, §2
binder,measurement,setting,value
"2H7-sss-hIgG-STD1-G19-4 HL (bispecific antibody, Assembled from modules; also called 2H7sssIgG1-STD1-G19-4 HL; CD20-hIgG-CD3 multispecific molecule (SSS hinge, HL); not shown: human IgG1 CH2-CH3) chain (part 1 of 2): QIVLSQSPAILSASPGEKVTMTCRASSSVSYMHWYQQKPGSSPKPWIYAPSNLASGVPARFSGSGSGTSYSLTISRVEAEDAATYYCQQWSFNPPTFGAGTKLELKDGGGSGGGGSGGGGSSQAYLQQSGAESVRPGASVKMSCKASGYTFTSYNMHWVKQTPRQGLEWIGAIYPGNGDTSYNQKFKGKATLTVDKSSSTAYMQLSSLTSEDSAVYFCARVVYYSNSYWYFDVWGTGTTVTVSEPKSSDKTHTSPPSP chain (part 2 of 2): NYGGGGSGGGGSGGGGSGNSEVQLQQSGPELVKPGASMKISCKASGYSFTGYIVNWLKQSHGKNLEWIGLINPYKGLTTYNQKFKGKATLTVDKSSSTAYMELLSLTSEDSAVYYCARSGYYGDSDWYFDVWGAGTTVTVSSGGGGSGGGGSGGGGSASDIQMTQTTSSLSASLGDRVTISCRASQDIRNYLNWYQQKPDGTVKLLIYYTSRLHSGVPSRFSGSGSGTDYSLTIANLQPEDIATYFCQQGNTLPWTFGGGTKLVTKRS",binding result,CD20 [1],binds
"2H7-sss-hIgG-STD1-G19-4 LH (bispecific antibody, Assembled from modules; also called 2H7sssIgG1-STD1-G19-4 LH; CD20-hIgG-CD3 multispecific molecule (LH); not shown: human IgG1 CH2-CH3) chain (part 1 of 2): QIVLSQSPAILSASPGEKVTMTCRASSSVSYMHWYQQKPGSSPKPWIYAPSNLASGVPARFSGSGSGTSYSLTISRVEAEDAATYYCQQWSFNPPTFGAGTKLELKDGGGSGGGGSGGGGSSQAYLQQSGAESVRPGASVKMSCKASGYTFTSYNMHWVKQTPRQGLEWIGAIYPGNGDTSYNQKFKGKATLTVDKSSSTAYMQLSSLTSEDSAVYFCARVVYYSNSYWYFDVWGTGTTVTVSEPKSSDKTHTSPPSP chain (part 2 of 2): NYGGGGSGGGGSGGGGSGNSDIQMTQTTSSLSASLGDRVTISCRASQDIRNYLNWYQQKPDGTVKLLIYYTSRLHSGVPSRFSGSGSGTDYSLTIANLQPEDIATYFCQQGNTLPWTFGGGTKLVTKRGGGGSGGGGSGGGGSASEVQLQQSGPELVKPGASMKISCKASGYSFTGYIVNWLKQSHGKNLEWIGLINPYKGLTTYNQKFKGKATLTVDKSSSTAYMELLSLTSEDSAVYYCARSGYYGDSDWYFDVWGAGTTVTVSS",binding result,CD20 [1],binds
"2H7-csc-hIgG-STD1-G19-4 HL (bispecific antibody, Assembled from modules; also called CD20-hIgG-CD3 multispecific molecule (CSC hinge, HL); not shown: human IgG1 CH2-CH3) chain (part 1 of 2): QIVLSQSPAILSASPGEKVTMTCRASSSVSYMHWYQQKPGSSPKPWIYAPSNLASGVPARFSGSGSGTSYSLTISRVEAEDAATYYCQQWSFNPPTFGAGTKLELKDGGGSGGGGSGGGGSSQAYLQQSGAESVRPGASVKMSCKASGYTFTSYNMHWVKQTPRQGLEWIGAIYPGNGDTSYNQKFKGKATLTVDKSSSTAYMQLSSLTSEDSAVYFCARVVYYSNSYWYFDVWGTGTTVTVSEPKSCDKTHTSPPCP chain (part 2 of 2): NYGGGGSGGGGSGGGGSGNSEVQLQQSGPELVKPGASMKISCKASGYSFTGYIVNWLKQSHGKNLEWIGLINPYKGLTTYNQKFKGKATLTVDKSSSTAYMELLSLTSEDSAVYYCARSGYYGDSDWYFDVWGAGTTVTVSSGGGGSGGGGSGGGGSASDIQMTQTTSSLSASLGDRVTISCRASQDIRNYLNWYQQKPDGTVKLLIYYTSRLHSGVPSRFSGSGSGTDYSLTIANLQPEDIATYFCQQGNTLPWTFGGGTKLVTKRS",binding result,CD20 [1],binds
"2H7-sssIgG P238S/P331S-STD1-2e12 VLVH (bispecific antibody, also called 2H7-IgG-STD1-2E12 LH; 2H7-2E12 LH) QIVLSQSPAILSASPGEKVTMTCRASSSVSYMHWYQQKPGSSPKPWIYAPSNLASGVPARFSGSGSGTSYSLTISRVEAEDAATYYCQQWSFNPPTFGAGTKLELKDGGGSGGGGSGGGGSSQAYLQQSGAESVRPGASVKMSCKASGYTFTSYNMHWVKQTPRQGLEWIGAIYPGNGDTSYNQKFKGKATLTVDKSSSTAYMQLSSLTSEDSAVYFCARVVYYSNSYWYFDVWGTGTTVTVSEPKSSDKTHTSPPSPAPELLGGSSVFLFPPKPKDTLMISRTPEVTCVVVDVSHEDPEVKFNWYVDGVEVHNAKTKPREEQYNSTYRVVSVLTVLHQDWLNGKEYKCKVSNKALPASIEKTISKAKGQPREPQVYTLPPSRDELTKNQVSLTCLVKGFYPSDIAVEWESNGQPENNYKTTPPVLDSDGSFFLYSKLTVDKSRWQQGNVFSCSVMHEALHNHYTQKSLSLSPGKNYGGGGSGGGGSGGGGSGNSDIVLTQSPASLAVSLGQRATISCRASESVEYYVTSLMQWYQQKPGQPPKLLISAASNVESGVPARFSGSGSGTDFSLNIHPVEEDDIAMYFCQQSRKVPWTFGGGTKLEIKRGGGGSGGGGSGGGGSQVQLKESGPGLVAPSQSLSITCTVSGFSLTGYGVNWVRQPPGKGLEWLGMIWGDGSTDYNSALKSRLSITKDNSKSQVFLKMNSLQTDDTARYYCARDGYSNFHYYVMDYWGQGTSVTVSS",binding result,CD20 [2],binds
"2H7-sssIgG P238S/P331S-STD1-2e12 VHVL (bispecific antibody, Assembled from modules as m10; also called 2H7-IgG-STD1-2E12 HL; 2H7-2E12 HL) QIVLSQSPAILSASPGEKVTMTCRASSSVSYMHWYQQKPGSSPKPWIYAPSNLASGVPARFSGSGSGTSYSLTISRVEAEDAATYYCQQWSFNPPTFGAGTKLELKDGGGSGGGGSGGGGSSQAYLQQSGAESVRPGASVKMSCKASGYTFTSYNMHWVKQTPRQGLEWIGAIYPGNGDTSYNQKFKGKATLTVDKSSSTAYMQLSSLTSEDSAVYFCARVVYYSNSYWYFDVWGTGTTVTVSEPKSSDKTHTSPPSPAPELLGGSSVFLFPPKPKDTLMISRTPEVTCVVVDVSHEDPEVKFNWYVDGVEVHNAKTKPREEQYNSTYRVVSVLTVLHQDWLNGKEYKCKVSNKALPASIEKTISKAKGQPREPQVYTLPPSRDELTKNQVSLTCLVKGFYPSDIAVEWESNGQPENNYKTTPPVLDSDGSFFLYSKLTVDKSRWQQGNVFSCSVMHEALHNHYTQKSLSLSPGKNYGGGGSGGGGSGGGGSGNSQVQLKESGPGLVAPSQSLSITCTVSGFSLTGYGVNWVRQPPGKGLEWLGMIWGDGSTDYNSALKSRLSITKDNSKSQVFLKMNSLQTDDTARYYCARDGYSNFHYYVMDYWGQGTSVTVSSGGGGSGGGGSGGGGSGGGGSDIVLTQSPASLAVSLGQRATISCRASESVEYYVTSLMQWYQQKPGQPPKLLISAASNVESGVPARFSGSGSGTDFSLNIHPVEEDDIAMYFCQQSRKVPWTFGGGTKLEIKR",binding result,CD20 [3],binds
"SMIP-sized cleaved fragment (2H7-sss-hIgG) of 2H7-sss-hIgG-H6-2e12 (other, Cleavage product seen on gels and blots, about 52 kDa; also called cleaved forms of the multivalent constructs; peptide fragment containing (2H7-sss-hIgG), and missing the CD28 scFv BD2 portion; not shown: C-terminal end: cleaved at or near the H6 linker, site not determined) QIVLSQSPAILSASPGEKVTMTCRASSSVSYMHWYQQKPGSSPKPWIYAPSNLASGVPARFSGSGSGTSYSLTISRVEAEDAATYYCQQWSFNPPTFGAGTKLELKDGGGSGGGGSGGGGSSQAYLQQSGAESVRPGASVKMSCKASGYTFTSYNMHWVKQTPRQGLEWIGAIYPGNGDTSYNQKFKGKATLTVDKSSSTAYMQLSSLTSEDSAVYFCARVVYYSNSYWYFDVWGTGTTVTVSEPKSSDKTHTSPPSPAPELLGGSSVFLFPPKPKDTLMISRTPEVTCVVVDVSHEDPEVKFNWYVDGVEVHNAKTKPREEQYNSTYRVVSVLTVLHQDWLNGKEYKCKVSNKALPASIEKTISKAKGQPREPQVYTLPPSRDELTKNQVSLTCLVKGFYPSDIAVEWESNGQPENNYKTTPPVLDSDGSFFLYSKLTVDKSRWQQGNVFSCSVMHEALHNHYTQKSLSLSPGK",binding result,CD28mIgG [4],no binding (tested: CD28Ig at 10 µg/ml)
"2e12 VHVL SMIP (Fc fusion, SMIP: scFv-hinge-CH2-CH3; also called 2E12IgG-VHVL SMIP; 2e12 HL SMIP; not shown: hinge-CH2-CH3 of human IgG) QVQLKESGPGLVAPSQSLSITCTVSGFSLTGYGVNWVRQPPGKGLEWLGMIWGDGSTDYNSALKSRLSITKDNSKSQVFLKMNSLQTDDTARYYCARDGYSNFHYYVMDYWGQGTSVTVSSGGGGSGGGGSGGGGSGGGGSDIVLTQSPASLAVSLGQRATISCRASESVEYYVTSLMQWYQQKPGQPPKLLISAASNVESGVPARFSGSGSGTDFSLNIHPVEEDDIAMYFCQQSRKVPWTFGGGTKLEIKR",binding result,CD20 [5],no binding (tested: 5 ug/ml)
"TRU-015 (Fc fusion, not shown: a dimerising Fc or GST, SMIP: scFv-hinge-CH2-CH3; also called 2H7 SMIP; CD20 SMIP (TRU015)) QIVLSQSPAILSASPGEKVTMTCRASSSVSYMHWYQQKPGSSPKPWIYAPSNLASGVPARFSGSGSGTSYSLTISRVEAEDAATYYCQQWSFNPPTFGAGTKLELKDGGGSGGGGSGGGGSSQAYLQQSGAESVRPGASVKMSCKASGYTFTSYNMHWVKQTPRQGLEWIGAIYPGNGDTSYNQKFKGKATLTVDKSSSTAYMQLSSLTSEDSAVYFCARVVYYSNSYWYFDVWGTGTTVTVS",binding result,CD28mIgG [6],no binding
